One experiment has as its target human FcgRIa (human). Put plainly: SPR. (SPR reads the build-up and loss of mass on a sensor chip optically.)
The target of another experiment is T1, human FcgRIIb (human).
T1 chain: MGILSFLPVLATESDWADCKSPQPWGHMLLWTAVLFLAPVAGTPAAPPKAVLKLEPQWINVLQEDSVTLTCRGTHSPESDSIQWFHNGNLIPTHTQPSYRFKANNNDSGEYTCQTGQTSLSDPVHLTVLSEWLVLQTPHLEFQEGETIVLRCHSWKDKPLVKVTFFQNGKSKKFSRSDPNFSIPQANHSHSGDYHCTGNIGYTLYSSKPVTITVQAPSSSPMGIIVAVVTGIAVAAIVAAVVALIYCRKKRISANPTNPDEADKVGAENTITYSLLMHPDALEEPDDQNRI
In words: SPR.

The next experiment has as its target T2, human FcgRIIa(R) (human).
T2 chain: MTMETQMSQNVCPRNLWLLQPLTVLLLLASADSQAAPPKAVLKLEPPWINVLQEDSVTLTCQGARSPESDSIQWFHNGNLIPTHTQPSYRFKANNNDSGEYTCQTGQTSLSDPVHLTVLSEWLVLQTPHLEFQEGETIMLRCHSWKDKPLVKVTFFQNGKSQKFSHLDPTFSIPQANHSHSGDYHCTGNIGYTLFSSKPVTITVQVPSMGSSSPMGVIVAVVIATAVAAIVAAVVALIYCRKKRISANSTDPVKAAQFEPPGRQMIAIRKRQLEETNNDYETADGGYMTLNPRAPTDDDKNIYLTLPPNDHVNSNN
Put plainly: SPR.

Experiment [1] deals with human FcRn (with beta2-microglobulin) (human). Put plainly: SPR, pH 7.0.
Sequence of human FcRn (with beta2-microglobulin) (human) (chain, as listed by the source, chain 1 of 2): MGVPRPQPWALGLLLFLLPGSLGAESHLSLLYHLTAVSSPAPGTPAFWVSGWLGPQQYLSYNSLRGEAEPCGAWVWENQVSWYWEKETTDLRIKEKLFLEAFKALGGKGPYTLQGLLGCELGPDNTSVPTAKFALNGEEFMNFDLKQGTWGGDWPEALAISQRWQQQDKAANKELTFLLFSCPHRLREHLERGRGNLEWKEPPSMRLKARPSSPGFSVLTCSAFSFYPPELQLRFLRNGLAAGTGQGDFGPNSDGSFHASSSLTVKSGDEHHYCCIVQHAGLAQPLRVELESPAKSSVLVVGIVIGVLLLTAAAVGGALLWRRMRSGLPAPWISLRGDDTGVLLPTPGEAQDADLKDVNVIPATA
Sequence of human FcRn (with beta2-microglobulin) (human) (chain, as listed by the source, chain 2 of 2): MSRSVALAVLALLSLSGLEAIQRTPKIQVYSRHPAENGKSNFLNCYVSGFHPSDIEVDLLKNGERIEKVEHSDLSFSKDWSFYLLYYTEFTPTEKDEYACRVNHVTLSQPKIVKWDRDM

Sequence of human FcgRIa (human) (chain, as listed by the source): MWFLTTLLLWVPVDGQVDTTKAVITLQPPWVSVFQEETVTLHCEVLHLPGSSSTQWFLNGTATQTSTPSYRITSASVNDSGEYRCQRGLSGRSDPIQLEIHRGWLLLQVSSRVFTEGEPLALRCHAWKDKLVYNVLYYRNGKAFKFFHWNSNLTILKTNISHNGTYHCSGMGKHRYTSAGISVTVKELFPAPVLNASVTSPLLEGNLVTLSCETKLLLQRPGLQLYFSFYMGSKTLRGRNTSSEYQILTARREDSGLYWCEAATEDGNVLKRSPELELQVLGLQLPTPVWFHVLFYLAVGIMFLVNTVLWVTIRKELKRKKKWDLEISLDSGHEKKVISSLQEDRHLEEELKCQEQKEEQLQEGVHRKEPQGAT

B1: IL6R-PD081 (antibody)
chain 1: QVQLQESGPGLVKPSETLSLTCAVSGHSISHDHAWSWVRQPPGEGLEWIGFISYSGITNYNPSLQGRVTISRDNSKNTLYLQMNSLRAEDTAVYYCARSLARTTAMDYWGEGTLVTVSSASTKGPSVFPLAPSSKSTSGGTAALGCLVKDYFPEPVTVSWNSGALTSGVHTFPAVLQSSGLYSLSSVVTVPSSSLGTQTYICNVNHKPSNTKVDKKVEPKSCDKTHTCPPCPAPELLGEDSVFLFPPKPKDTLYISRTPEVTCVVVDVSHEDPEVKFNWYVDGVEVHNAKTKPREEQYNSTYRVVSVLTVLHQDWLNGKEYKCKVSNKALPAPIEKTISKAKGQPREPQVYTLPPSRDELTKNQVSLTCLVKGFYPSDIAVEWESNGQPENNYKTTPPVLDSDGSFFLYSKLTVDKSRWQQGNVFSCSVMHEALHYHYTQKSLSLSP
chain 2: DIQMTQSPSSLSASVGDRVTITCRASQDISSYLNWYQQKPGKAPKLLIYYTSRLHSGVPSRFSGSGSGTDFTFTISSLQPEDIATYYCQQGNTLPYTFGQGTKVEIK
In general, Kd refers to a measure of binding affinity in units of concentration. Read a high Kd as weaker binding. For the molecule B1, the Kd with human FcgRIa came out at 340 nM; in the experiment with human FcgRIIb it was 3600 nM; with human FcgRIIa(R), 38000 nM.

B2: F1325 (antibody)
chain 1: QVQLQESGPGLVKPSETLSLTCAVSGHSISHDHAWSWVRQPPGEGLEWIGFISYSGITNYNPSLQGRVTISRDNSKNTLYLQMNSLRAEDTAVYYCARSLARTTAMDYWGEGTLVTVSSASTKGPSVFPLAPSSKSTSGGTAALGCLVKDYFPEPVTVSWNSGALTSGVHTFPAVLQSSGLYSLSSVVTVPSSSLGTQTYICNVNHKPSNTKVDKKVEPKSCDKTHTCPPCPAPEAAGGPSVFLFPPKPKDTLYISRTPEVTCVVVDVSHEDPEVKFNWYVDGVEVHNAKTKPREEQYASTYRVVSVLTVLHQDWLNGKEYKCKVSNKALPAPIEKTISKAKGQPREPQVYTLPPSRDELTKNQVSLTCLVKGFYPSDIAVEWESNGQPENNYKTTPPVLDSDGSFFLYSKLTVDKSRWQQGNVFSCSVMHEALHYHVTQKSLSLSP
chain 2: not shown
For B2, the Kd in experiment [1] was found to be 213 nM.

B3: F890 (antibody)
chain 1: QVQLQESGPGLVKPSETLSLTCAVSGHSISHDHAWSWVRQPPGEGLEWIGFISYSGITNYNPSLQGRVTISRDNSKNTLYLQMNSLRAEDTAVYYCARSLARTTAMDYWGEGTLVTVSSASTKGPSVFPLAPSSKSTSGGTAALGCLVKDYFPEPVTVSWNSGALTSGVHTFPAVLQSSGLYSLSSVVTVPSSSLGTQTYICNVNHKPSNTKVDKKVEPKSCDKTHTCPPCPAPELLGGPSVFLFPPKPKDTLYISRTPEVTCVVVDVSHEDPEVKFNWYVDGVEVHNAKTKPREEQYNSTYRVVSVLTVLHQDWLNGKEYKCKVSNKALPAPIEKTISKAKGQPREPQVYTLPPSRDELTKNQVSLTCLVKGFYPSDIAVEWESNGQPENNYKTTPPVLDSDGSFFLYSKLTVDKSRWQQGNVFSCSVMHEALHYHVTQKSLSLSP
chain 2: not shown
In the case of B3, the affinity in experiment [1], expressed as Kd, was 107 nM.

B4: F1316 (antibody)
chain 1: QVQLQESGPGLVKPSETLSLTCAVSGHSISHDHAWSWVRQPPGEGLEWIGFISYSGITNYNPSLQGRVTISRDNSKNTLYLQMNSLRAEDTAVYYCARSLARTTAMDYWGEGTLVTVSSASTKGPSVFPLAPSSKSTSGGTAALGCLVKDYFPEPVTVSWNSGALTSGVHTFPAVLQSSGLYSLSSVVTVPSSSLGTQTYICNVNHKPSNTKVDKKVEPKSCDKTHTCPPCPAPELLGRPKVFLFPPKPKDTLYISRTPEVTCVVVDVSHEDPEVKFNWYVDGVEVHNAKTKPREEQYNSTYRVVSVLTVLHQDWLNGKEYKCKVSNKALPAPIEKTISKAKGQPREPQVYTLPPSRDELTKNQVSLTCLVKGFYPSDIAVEWESNGQPENNYKTTPPVLDSDGSFFLYSKLTVDKSRWQQGNVFSCSVMHEALHYHVTQKSLSLSP
chain 2: not shown
In experiment [1], B4 gave a Kd of 149 nM.

B5: F938 (antibody)
chain 1: QVQLQESGPGLVKPSETLSLTCAVSGHSISHDHAWSWVRQPPGEGLEWIGFISYSGITNYNPSLQGRVTISRDNSKNTLYLQMNSLRAEDTAVYYCARSLARTTAMDYWGEGTLVTVSSASTKGPSVFPLAPSSKSTSGGTAALGCLVKDYFPEPVTVSWNSGALTSGVHTFPAVLQSSGLYSLSSVVTVPSSSLGTQTYICNVNHKPSNTKVDKKVEPKSCDKTHTCPPCPAPELKGGPKVFLFPPKPKDTLYISRTPEVTCVVVDVSHEDPEVKFNWYVDGVEVHNAKTKPREEQYNSTYRVVSVLTVLHQDWLNGKEYKCKVSNKALPAPIEKTISKAKGQPREPQVYTLPPSRDELTKNQVSLTCLVKGFYPSDIAVEWESNGQPENNYKTTPPVLDSDGSFFLYSKLTVDKSRWQQGNVFSCSVMHEALHYHVTQKSLSLSP
chain 2: not shown
For B5, in experiment [1], binding was characterised by a dissociation constant (Kd) of 161 nM.

B6: F1317 (antibody)
chain 1: QVQLQESGPGLVKPSETLSLTCAVSGHSISHDHAWSWVRQPPGEGLEWIGFISYSGITNYNPSLQGRVTISRDNSKNTLYLQMNSLRAEDTAVYYCARSLARTTAMDYWGEGTLVTVSSASTKGPSVFPLAPSSKSTSGGTAALGCLVKDYFPEPVTVSWNSGALTSGVHTFPAVLQSSGLYSLSSVVTVPSSSLGTQTYICNVNHKPSNTKVDKKVEPKSCDKTHTCPPCPAPELLGGPKVFLFPPKPKDTLYISRTPEVTCVVVDVSHEDPEVKFNWYVDGVEVHNAKTKPREEQYNSTYRVVSVLTVLHQDWLNGKEYKCKVSNKALKAPIEKTISKAKGQPREPQVYTLPPSRDELTKNQVSLTCLVKGFYPSDIAVEWESNGQPENNYKTTPPVLDSDGSFFLYSKLTVDKSRWQQGNVFSCSVMHEALHYHVTQKSLSLSP
chain 2: not shown
B6 came in with an equilibrium dissociation constant (Kd) in experiment [1] of 138 nM.

B7: F1356 (antibody)
chain 1: QVQLQESGPGLVKPSETLSLTCAVSGHSISHDHAWSWVRQPPGEGLEWIGFISYSGITNYNPSLQGRVTISRDNSKNTLYLQMNSLRAEDTAVYYCARSLARTTAMDYWGEGTLVTVSSASTKGPSVFPLAPSSKSTSGGTAALGCLVKDYFPEPVTVSWNSGALTSGVHTFPAVLQSSGLYSLSSVVTVPSSSLGTQTYICNVNHKPSNTKVDKKVEPKSCDKTHTCPPCPAPELLRGPSVFLFPPKPKDTLYISRTPEVTCVVVDVSHEDPEVKFNWYVDGVEVHNAKTKPREEQYNSTYRVVSVLTVLHQDWLNGKEYKCKVSNKARPAPIEKTISKAKGQPREPQVYTLPPSRDELTKNQVSLTCLVKGFYPSDIAVEWESNGQPENNYKTTPPVLDSDGSFFLYSKLTVDKSRWQQGNVFSCSVMHEALHYHVTQKSLSLSP
chain 2: not shown
As for B7, the equilibrium dissociation constant (Kd) in experiment [1] turned out to be 158 nM.

B8: F1318 (antibody)
chain 1: QVQLQESGPGLVKPSETLSLTCAVSGHSISHDHAWSWVRQPPGEGLEWIGFISYSGITNYNPSLQGRVTISRDNSKNTLYLQMNSLRAEDTAVYYCARSLARTTAMDYWGEGTLVTVSSASTKGPSVFPLAPSSKSTSGGTAALGCLVKDYFPEPVTVSWNSGALTSGVHTFPAVLQSSGLYSLSSVVTVPSSSLGTQTYICNVNHKPSNTKVDKKVEPKSCDKTHTCPPCPAPELLGGPKVFLFPPKPKDTLYISRTPEVTCVVVDVSHEDPEVKFNWYVDGVEVHNAKTKPREEQYNSTYRVVSVLTVLHQDWLNGKEYKCKVSNKALRAPIEKTISKAKGQPREPQVYTLPPSRDELTKNQVSLTCLVKGFYPSDIAVEWESNGQPENNYKTTPPVLDSDGSFFLYSKLTVDKSRWQQGNVFSCSVMHEALHYHVTQKSLSLSP
chain 2: not shown
As to B8, the Kd in experiment [1] was 143 nM.

B9: F1315 (antibody)
chain 1: QVQLQESGPGLVKPSETLSLTCAVSGHSISHDHAWSWVRQPPGEGLEWIGFISYSGITNYNPSLQGRVTISRDNSKNTLYLQMNSLRAEDTAVYYCARSLARTTAMDYWGEGTLVTVSSASTKGPSVFPLAPSSKSTSGGTAALGCLVKDYFPEPVTVSWNSGALTSGVHTFPAVLQSSGLYSLSSVVTVPSSSLGTQTYICNVNHKPSNTKVDKKVEPKSCDKTHTCPPCPAPELLGKPKVFLFPPKPKDTLYISRTPEVTCVVVDVSHEDPEVKFNWYVDGVEVHNAKTKPREEQYNSTYRVVSVLTVLHQDWLNGKEYKCKVSNKALPAPIEKTISKAKGQPREPQVYTLPPSRDELTKNQVSLTCLVKGFYPSDIAVEWESNGQPENNYKTTPPVLDSDGSFFLYSKLTVDKSRWQQGNVFSCSVMHEALHYHVTQKSLSLSP
chain 2: not shown
In experiment [1], B9 came in with a Kd of 152 nM.

B10: F1324 (antibody)
chain 1: QVQLQESGPGLVKPSETLSLTCAVSGHSISHDHAWSWVRQPPGEGLEWIGFISYSGITNYNPSLQGRVTISRDNSKNTLYLQMNSLRAEDTAVYYCARSLARTTAMDYWGEGTLVTVSSASTKGPSVFPLAPSSKSTSGGTAALGCLVKDYFPEPVTVSWNSGALTSGVHTFPAVLQSSGLYSLSSVVTVPSSSLGTQTYICNVNHKPSNTKVDKKVEPKSCDKTHTCPPCPAPEAAGGPSVFLFPPKPKDTLYISRTPEVTCVVVDVSHEDPEVKFNWYVDGVEVHNAKTKPREEQYNSTYRVVSVLTVLHQDWLNGKEYKCKVSNKALPAPIEKTISKAKGQPREPQVYTLPPSRDELTKNQVSLTCLVKGFYPSDIAVEWESNGQPENNYKTTPPVLDSDGSFFLYSKLTVDKSRWQQGNVFSCSVMHEALHYHVTQKSLSLSP
chain 2: not shown
For B10, the affinity in experiment [1], expressed as Kd, was 132 nM.

B11: F1333 (antibody)
chain 1: QVQLQESGPGLVKPSETLSLTCAVSGHSISHDHAWSWVRQPPGEGLEWIGFISYSGITNYNPSLQGRVTISRDNSKNTLYLQMNSLRAEDTAVYYCARSLARTTAMDYWGEGTLVTVSSASTKGPSVFPLAPSSKSTSGGTAALGCLVKDYFPEPVTVSWNSGALTSGVHTFPAVLQSSGLYSLSSVVTVPSSSLGTQTYICNVNHKPSNTKVDKKVEPKSCDKTHTCPPCPAPELRRGPKVFLFPPKPKDTLYISRTPEVTCVVVDVSHEDPEVKFNWYVDGVEVHNAKTKPREEQYNSTYRVVSVLTVLHQDWLNGKEYKCKVSNKALPAPIEKTISKAKGQPREPQVYTLPPSRDELTKNQVSLTCLVKGFYPSDIAVEWESNGQPENNYKTTPPVLDSDGSFFLYSKLTVDKSRWQQGNVFSCSVMHEALHYHVTQKSLSLSP
chain 2: not shown
In turn, B11 displayed a Kd in experiment [1] of 123 nM.
